Data taken from FireProtDB (doi:10.1021/bi010636i).
Several values for one entry are separate records, joined by “and”; a condition that tells them apart may be missing. Identical values can stand only once.

B1: Cytochrome b5 type B, P04166 (parent)
chain: MATPEASGSGRNGQGSDPAVTYYRLEEVAKRNTAEETWMVIHGRVYDITRFLSEHPGGEEVLLEQAGADATESFEDVGHSPDAREMLKQYYIGDVHPNDLKPKDGDKDPSKNNSCQSSWAYWIVPIVGAILIGFLYRHFWADSKSS

Variants of: B1
Conditions: Rattus norvegicus, pH 7, CD, potassium phosphate buffer, transition: 2, reversible: yes, structure 1B5M, whole UniProt chain shown; for denaturant midpoint (higher = more stable): 25 °C, GdnHCl; for Tm / change of melting temperature, mutant - wild type (higher = more stable): Thermal

| Variant | denaturant midpoint (higher = more stable) | Tm [°C] | change of melting temperature, mutant - wild type (higher = more stable) [°C] |
| --- | --- | --- | --- |
| MATPEASGSGRNGQGSDPAVTYYRLEEVAKRNTSEETWMVIHGRVYDITRFLSEHPGGEEVLREQAGADATESFEDVGHSPDAREMLKQYYIGDVHPNDLKPKDGDKDPSKNNSCQSSWAYWIVPIVGAILIGFLYRHFWADSKSS | 3.56 M and 3.52 M | 83.3 | -3.7 |
| MATPEASGSGRNGQGSDPAVTYYRLEEVAKRNTSEETWMVIHGRVYDLTRFLSEHPGGEEVLREQAGADATESFEDVGHSPDAREMLKQYYIGDVHPNDLKPKDGDKDPSKNNSCQSSWAYWIVPIVGAILIGFLYRHFWADSKSS | 3.34 M and 3.33 M | 81.8 | -5.2 |
| MATPEASGSGRNGQGSDPAVTYYRLEEVAKRNTAEETWMVIHGRVYDLTRFLSEHPGGEEVLLEQAGADATESFEDVGHSPDAREMLKQYYIGDVHPNDLKPKDGDKDPSKNNSCQSSWAYWIVPIVGAILIGFLYRHFWADSKSS | 3.93 M and 3.91 M | 85.7 | -1.3 |
